Source: PMC5817926

Key:
[1] = molecular target: ubiquitin polyprotein composed of nine identical repeats (Ubi)9 (UniProt P0CG48)
[2] = molecular target: ubiquitin polyprotein composed of nine identical repeats (Ubi)9 (UniProt P0CG48); remark: listed apart in the source
[3] = molecular target: ubiquitin polyprotein composed of nine identical repeats (Ubi)9 (UniProt P0CG48); remark: listed apart in the source
[4] = molecular target: ubiquitin polyprotein composed of nine identical repeats (Ubi)9; experiment: single-molecule force-clamp spectroscopy (AFM) with a kinetic model fit; (Ubi)9 tethered between gold and cantilever, 5 uM DnaJ in solution; PBS + 5 mM MgCl2 pH 7.4, 22 C; binding to ubiquitin held extended at 170 pN for text 0-30 s, quench 5 s; kon and koff of the extended state as free parameters of the kinetic model
[5] = molecular target: (I27)8 polyprotein of the I27th Ig domain of titin; experiment: single-molecule force-clamp spectroscopy (AFM) with a kinetic model fit; polyprotein tethered between gold and cantilever, 5 uM chaperone in solution (DnaK with ADP); PBS + 5 mM MgCl2 pH 7.4, 22 C; binding to the collapsed state during the quench at 0 pN (tq 0.5-15 s); constants from a multiparametric fit of the kinetic model to the refolding kinetics
[6] = molecular target: ubiquitin polyprotein composed of nine identical repeats (Ubi)9; experiment: single-molecule force-clamp spectroscopy (AFM) with a kinetic model fit; (Ubi)9 tethered between gold and cantilever, 5 uM chaperone in solution (DnaK with ADP); PBS + 5 mM MgCl2 pH 7.4, 22 C; binding to ubiquitin mechanically unfolded and held extended at 120 pN; constants from a multiparametric fit of ordinary differential equations to the refolding yields
[7] = molecular target: (I27)8 polyprotein of the I27th Ig domain of titin; experiment: single-molecule force-clamp spectroscopy (AFM); collapsed (molten globule-like) states: polyprotein tethered between a gold surface and the cantilever tip, unfolded, force quenched for tq 0.5 to 15 s with 5 uM chaperone (DnaK with ADP); refolding yield read in a test pulse; constants from a multiparametric fit of a kinetic model; PBS + 5 mM MgCl2, pH 7.4, 22 C
[8] = molecular target: ubiquitin polyprotein composed of nine identical repeats (Ubi)9 (UniProt P0CG48); experiment: single-molecule force-clamp spectroscopy (AFM); extended state: polyprotein tethered between a gold surface and the cantilever tip, unfolded and held extended at high force (120 pN; 170 pN for the constants of the extended conformation) for text 1 to 30 s with 5 uM chaperone (DnaK with ADP); refolding yield read in a test pulse after tq = 5 s; constants from a multiparametric fit of a kinetic model; PBS + 5 mM MgCl2, pH 7.4, 22 C
[9] = molecular target: ubiquitin polyprotein composed of nine identical repeats (Ubi)9 (UniProt P0CG48); remark: listed apart in the source
[10] = molecular target: (I27)8 polyprotein of the I27th Ig domain of titin
[11] = molecular target: ubiquitin polyprotein composed of nine identical repeats (Ubi)9 (UniProt P0CG48); experiment: single-molecule force-clamp spectroscopy (AFM); collapsed (molten globule-like) states: polyprotein tethered between a gold surface and the cantilever tip, unfolded, force quenched for tq 0.5 to 15 s with 5 uM chaperone (DnaK with ADP); refolding yield read in a test pulse; constants from a multiparametric fit of a kinetic model; PBS + 5 mM MgCl2, pH 7.4, 22 C

DnaK (Hsp70), sequence (P0A6Y8 whole entry): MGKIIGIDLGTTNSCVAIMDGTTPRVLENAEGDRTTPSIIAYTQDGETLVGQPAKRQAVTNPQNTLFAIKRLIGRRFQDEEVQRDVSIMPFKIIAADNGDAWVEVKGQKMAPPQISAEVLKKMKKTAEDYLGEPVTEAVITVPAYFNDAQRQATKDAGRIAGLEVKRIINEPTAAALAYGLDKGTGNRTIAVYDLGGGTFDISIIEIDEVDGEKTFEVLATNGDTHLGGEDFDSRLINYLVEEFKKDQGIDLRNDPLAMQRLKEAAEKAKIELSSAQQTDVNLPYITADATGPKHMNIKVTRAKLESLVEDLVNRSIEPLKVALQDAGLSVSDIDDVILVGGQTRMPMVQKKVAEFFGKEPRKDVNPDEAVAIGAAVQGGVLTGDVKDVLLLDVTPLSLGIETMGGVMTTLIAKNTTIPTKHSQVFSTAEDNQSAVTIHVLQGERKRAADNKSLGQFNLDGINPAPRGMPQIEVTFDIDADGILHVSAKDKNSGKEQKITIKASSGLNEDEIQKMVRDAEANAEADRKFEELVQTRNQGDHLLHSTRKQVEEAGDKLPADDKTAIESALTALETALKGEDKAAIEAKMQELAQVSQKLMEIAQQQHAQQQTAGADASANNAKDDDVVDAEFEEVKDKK
DnaJ (Hsp40), sequence (P08622 whole entry): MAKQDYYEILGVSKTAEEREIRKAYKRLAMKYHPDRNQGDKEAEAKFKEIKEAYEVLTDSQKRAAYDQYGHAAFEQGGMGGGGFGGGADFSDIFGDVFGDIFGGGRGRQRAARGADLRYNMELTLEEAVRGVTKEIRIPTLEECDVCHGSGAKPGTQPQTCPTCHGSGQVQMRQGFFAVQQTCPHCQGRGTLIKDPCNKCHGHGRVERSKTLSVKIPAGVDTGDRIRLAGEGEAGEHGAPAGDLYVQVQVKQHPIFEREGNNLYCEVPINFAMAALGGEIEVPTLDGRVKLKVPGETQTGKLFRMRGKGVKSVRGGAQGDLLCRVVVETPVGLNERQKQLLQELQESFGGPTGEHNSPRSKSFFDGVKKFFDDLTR

plateau of the refolding yield of ubiquitin in force-quench trajectories (tq 0.5 to 15 s) with 5 μM DnaJ (~75% without DnaJ) [1] | rate of the exponential decrease of the refolding efficiency of ubiquitin with the time held extended (text 1 to 30 s, tq = 5 s) with 5 μM DnaJ [2] | refolding percentage of ubiquitin after 15 s stretched at 50 to 300 pN with DnaJ, tq = 5 s (10% at 150 to 170 pN, ~30% at 300 pN, ~50% at 50 pN) [3] | kon [4] | koff [5] | koff [6] | kon [6] | Kd [7] | kon [7] | Kd [8] | plateau of the refolding yield of ubiquitin in force-quench trajectories (tq 0.5 to 15 s) with 5 μM DnaK(ADP) [9] | refolding yield of I27 with DnaK(ADP) [10] | Kd [11] | Substance
30% | 0.27 s⁻¹ | 50% | 48700 M⁻¹ s⁻¹ | 0.0472 s⁻¹ | 0.0492 s⁻¹ | 29900 M⁻¹ s⁻¹ | 330 nM | 250000 M⁻¹ s⁻¹ | 940 nM | – | – | – | DnaJ (Hsp40) (from UniProt P08622 1-376) (natural protein)
– | – | – | – | 0.029 s⁻¹ | – | – | 270 nM | – | – | 30% | 50% | 140 nM | DnaK (Hsp70) (from UniProt P0A6Y8 1-638) (natural protein)
